The results in this text go back to patent US5541071 (New England Medical Center Hospitals, Inc., dated 1996).

In experiment [1] the target is canine parietal cell gastrin receptor (recombinant, expressed from clone GR-1 in COS-7 cells) (canine).
Experiment [2] has the same target. The source holds these as a separate data set.
The target in experiment [3] is T1, canine parietal cell gastrin receptor (recombinant, expressed from clone GR-1 in COS-7 cells) (canine).
T1 chain: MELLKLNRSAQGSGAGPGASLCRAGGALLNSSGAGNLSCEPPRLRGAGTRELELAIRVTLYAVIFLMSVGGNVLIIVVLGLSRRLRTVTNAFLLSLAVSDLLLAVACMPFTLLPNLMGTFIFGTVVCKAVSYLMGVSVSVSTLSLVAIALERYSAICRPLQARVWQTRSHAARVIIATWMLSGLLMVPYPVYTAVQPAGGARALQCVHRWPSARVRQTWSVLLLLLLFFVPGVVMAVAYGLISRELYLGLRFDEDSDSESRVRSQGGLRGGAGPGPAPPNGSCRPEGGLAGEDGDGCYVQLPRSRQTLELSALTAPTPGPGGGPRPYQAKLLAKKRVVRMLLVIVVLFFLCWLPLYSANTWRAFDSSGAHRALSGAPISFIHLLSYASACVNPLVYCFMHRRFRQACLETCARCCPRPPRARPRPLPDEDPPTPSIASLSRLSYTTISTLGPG
Nature of the experiment: competition with 40 pM 125I-CCK-8 on intact GR-1 transfected COS-7 cells.
Description: (§1) COS-7 cells (1.5 ×10^6) were plated in 10 cm culture dishes (Nunc) and grown in DMEM/10% fetal calf serum, 5% CO_2 at 37° C. […] Twenty-four hours following transfection, cells were split into 24-well dishes (Nunc), 5000 cells/well. […] Equilibrium binding occurred after incubation for 80 min at 37° C. Cell monolayers were subsequently washed three times and bound radioactivity was quantified after cell hydrolysis in 1N NaOH.

For experiment [4], the target named is T1, canine parietal cell gastrin receptor …. Nature of the experiment: competition with 125I-CCK-8 on isolated membranes of GR-1 transfected COS-7 cells, filtration.
Description: Binding parameters were also measured in isolated plasma membranes from COS-7 cells transfected with GR-1. Binding was performed for 60 min at 22° C.
Experiment [5] has the same target. Nature of the experiment: radioligand saturation binding, 2.5 to 1,000 pM 125I-CCK-8, GR-1 transfected COS-7 cells.
Description: as §1

Square brackets hold non-standard residues; d marks the D form. Ends that are not written are not given here. sY = N[C@@H](Cc1ccc(OS(=O)(=O)O)cc1)C(=O)O

What is called IC50 is the midpoint of a concentration-inhibition curve. One may read the Kd as the free concentration of one partner at which half of the binding sites on the other are occupied at equilibrium, for simple one-to-one binding.

B1: gastrin I (peptide)
peptide: QGPWLEEEEEAYGWMDF-NH2
modifications: ends and bridges not checked
For the molecule B1, the free cytosolic calcium, [Ca2+] (fura-2 fluorescence) in experiment [1] came out at 142 nM. Moreover, the phosphoinositide metabolites (Ins-1,4,5-P3, Ins-1,3,4,5-P4) by HPLC (% over control) in experiment [2] came to 741. For the same molecule, the IC50 in experiment [3] came out at 0.26 nM; in experiment [4] it was 0.4 nM.

B2: CCK-8 (unlabeled) (peptide)
peptide: D[sY]MGWMDF-NH2
In the case of B2, the 50% inhibitory concentration (IC50) in experiment [3] was 0.09 nM; in experiment [4] it was 0.08 nM.

B3: CCK-8-desulfate (peptide)
peptide: DYMGWMDF-NH2
Turning to B3, the IC50 in experiment [4] stood at 1.5 nM.

B4: 125I-CCK-8 (peptide)
peptide: DYMGWMDF
modifications: ends and bridges not checked; also: 125I label, site not given here
Regarding B4, in experiment [5], the Kd is 0.08 nM.
